Laboratory results from US8623997B2, “Variant Hhip1 protein and methods and uses thereof” (Curis, Inc., priority 2008, dated 2014).
Bridge positions count the residues as written; N and C are the ends. Ends that are not written are not given here.

Legend:
[1] = target: T1, Shh (Homo sapiens, UniProt Q15465); assay: NMR HSQC spectroscopy of labeled Shh with L2 loop peptides; type: binding
T1 construct: yielding Shh (residues 29-197) lacking the His6-Tag; His6 (N, cleaved yes); made in house; host or cells: E. coli Rosetta 2, minimal/M9 medium with 15NH4Cl
From the text: Shh is in the same orientation as in the Hhip-Shh complex in Panel A. Zn^2+ and Ca^2+ cations are shown. […] Surface representation of Shh with residues within 4.5 Å of Hhip (shaded gray) and Cdon (hatched areas). Area within dotted boarder indicates the boundaries of the Cdon footprint, which overlaps the Hhip binding surface. […] Shh histidine residues are shown as sticks with nitrogen atoms shaded dark. The Hhip L2 loop is shown in transparent surface and Zn^2+ cation is shown. Histidine 35 is not shown since the ordered portion of the Shh structure begins at L40. […] The spectral region of the histidine side chains is shown. […] The average mean Shh649 fluorescence intensity (MFI) of two independent dilution series was plotted versus protein concentration, with error bars denoting standard deviations. Ctrl refers to the His-6 (SEQ ID NO: 87) tagged HGF β protein. […] Shh649 (0.33 nM) was preincubated with 56 nM (170-fold excess) of Hhipβ12 wildtype or L2 mutant proteins, 5E1 or controls then bound to Ptch1 cells (black) or 293 cells (gray), washed and analyzed by FACS. Shh649 binding to Ptch1 cells in the absence of inhibitors was normalized to 100% and the data expressed as a percentage of this signal (average of two independent duplicates with standard deviations). Ctrl and CtrlFc refer to HGF β and the IgG1 isotype control Trastuzumab, respectively. […]

[2] = target: T2, Shh-Flag (Homo sapiens, UniProt Q15465); assay: Peptide competition ELISA for Hhip binding to Shh-Flag
T2 construct: Shh-Flag (residues 25-197 with C-terminal Flag-Tag); His6 (N); made in house; host or cells: Shh-Flag: E. coli Rosetta 2; Hhip: Tni insect cells
Experimental: In a competition assay, a peptide derived from the Hhip1β12 L2 loop competed with Hipβ1 for Shh binding. Briefly, 96-well Nunc-Immuno MaxiSorp plates (Nalge Nunc International) were coated with 100 μl of anti-Flag M2 antibody (Sigma) at 5 μg/ml in 50 mM sodium carbonate buffer pH 9.6 at 4° C. overnight. Plates were blocked and washed as described for Shh competition ELISA followed by incubation with 100 μL of Shh-Flag at 50 μg/ml for 1 h. After plate washing a serial dilution of Hip-L2 peptide ([…]) (SEQ ID NO:46) starting at 1.2 mM (1:3 dilution) containing 800 nM Hhip1β12 in a final volume of 100 μL was added to the wells to compete for binding to Shh-Flag. After incubation for 1 hr, wells were washed and incubated with anti-His-HRP conjugate (Qiagen, 1:2000 dilution) in blocking buffer. Plate was developed and the data were fit to a 4-parameter equation and the IC50 calculated as described above; assays were carried out in triplicate.

T1 sequence (Q15465 29-197): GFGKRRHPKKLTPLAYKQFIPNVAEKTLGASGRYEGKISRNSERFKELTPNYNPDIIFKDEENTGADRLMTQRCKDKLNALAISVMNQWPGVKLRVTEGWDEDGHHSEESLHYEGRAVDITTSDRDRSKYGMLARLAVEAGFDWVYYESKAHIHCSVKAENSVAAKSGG
T2 sequence (Q15465 25-197): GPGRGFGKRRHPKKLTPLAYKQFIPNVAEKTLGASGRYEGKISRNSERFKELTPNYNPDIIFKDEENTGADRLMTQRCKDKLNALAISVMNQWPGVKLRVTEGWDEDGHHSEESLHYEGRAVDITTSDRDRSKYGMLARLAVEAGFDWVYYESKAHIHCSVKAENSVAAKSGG

Sequence | displacement of Ptch1 L2-like peptide from Shh by ^13C, ^1H-HSQC ([1]; 2 mM of each peptide) | binding to Shh by ^15N, ^1H HSQC (in words) ([1]; peptide 2 mM, 90 μM ^15N-Shh) | competition with Hipβ1 for Shh binding (in words) [2]
GCGMITLDDMEEMDGLSDFCG (disulfide 2-20 (inferred); listed as Homo sapiens) [Hhip1β12 L2 peptide] | displaces Ptch1 L2-like peptide from Shh | – | –
GCQLTKQRLVDADGIINPCG (disulfide 2-19 (inferred); listed as Homo sapiens) [Ptch L2 peptide] | – | binds Shh in a manner similar to that of the Hhip1β12 L2 peptide | unable to compete with Hipβ1 for Shh binding
